Measurements from the supplement of paper PMC11246515.
± gives the standard deviation of the averaged measurements.

Experiment: total protein half-life in vivo (active degradation + dilution); higher = more stable protein
[1] = E. coli NCM3722 delta-clpP delta-lon delta-hslV, growth: N-lim chemostat, doubling time 6 h
[2] = E. coli NCM3722 delta-clpP, growth: N-lim chemostat, doubling time 6 h
[3] = E. coli NCM3722 delta-hslV, growth: N-lim chemostat, doubling time 6 h
[4] = E. coli NCM3722 delta-lon, growth: N-lim chemostat, doubling time 6 h
[5] = E. coli NCM3722 delta-smpB, growth: N-lim chemostat, doubling time 6 h
[6] = wild type E. coli NCM3722, growth: C-lim chemostat, doubling time 3 h
[7] = wild type E. coli NCM3722, growth: C-lim chemostat, doubling time 6 h
[8] = wild type E. coli NCM3722, growth: C-lim chemostat, doubling time 12 h
[9] = wild type E. coli NCM3722, growth: N-lim chemostat, doubling time 6 h
[10] = wild type E. coli NCM3722, growth: N-lim chemostat, doubling time 12 h
[11] = wild type E. coli NCM3722, growth: P-lim chemostat, doubling time 6 h
[12] = wild type E. coli NCM3722, growth: P-lim chemostat, doubling time 12 h

Sequence | total protein half-life in vivo [1] [h] | total protein half-life in vivo [2] [h] | total protein half-life in vivo [3] [h] | total protein half-life in vivo [4] [h] | total protein half-life in vivo [5] [h] | total protein half-life in vivo [6] [h] | total protein half-life in vivo [7] [h] | total protein half-life in vivo [8] [h] | total protein half-life in vivo [9] [h] | total protein half-life in vivo [10] [h] | total protein half-life in vivo [11] [h] | total protein half-life in vivo [12] [h]
MSELSQLSPQPLWDIFAKICSIPHPSYHEEQLAEYIVGWAKEKGFHVERDQVGNILIRKPATAGMENRKPVVLQAHLDMVPQKNNDTVHDFTKDPIQPYIDGEWVKARGTTLGADNGIGMASALAVLADENVVHGPLEVLLTMTEEAGMDGAFGLQGNWLQADILINTDSEEEGEIYMGCAGGIDFTSNLHLDREAVPAGFETFKLTLKGLKGGHSGGEIHVGLGNANKLLVRFLAGHAEELDLRLIDFNGGTLRNAIPREAFATIAVAADKVDVLKSLVNTYQEILKNELAEKEKNLALLLDSVANDKAALIAKSRDTFIRLLNATPNGVIRNSDVAKGVVETSLNVGVVTMTDNNVEIHCLIRSLIDSGKDYVVSMLDSLGKLAGAKTEAKGAYPGWQPDANSPVMHLVRETYQRLFNKTPNIQIIHAGLECGLFKKPYPEMDMVSIGPTITGPHSPDEQVHIESVGHYWTLLTELLKEIPAK | 4.741 ± 0.0055 | 4.94 ± 0.75 | 5.28 ± 0.26 | 4.816 ± 0.018 | 4.53 ± 0.12 | 3.09 ± 0.14 | 5.61 ± 0.4 | 11.1 ± 0.36 | 4.81 ± 0.18 | 8.14 ± 0.0087 | 5.88 ± 0.37 | 13.7 ± 3.1
MANWLNQLQSLLGQSSSSTSSSADQGLVKLLVPGALGGLAGLLVANKSARKLLTKYGTNALLVGGGAVAGTVLWNKYKDKIRAAHQDEPQFGAQSTPLDERTARLILALVFAAKSDGHIDAKERAAIDQQLRGAGVEEQGRVLIEQAIEQPLDPQRLATGVRNEEEALEIYFLSCAAIDIDHFMERSYLNALGDALKIPQDVRDGIERDLEQQKRTLAE | 5.293 ± 0.0053 |  | 3.74 ± 0.12 | 3.56 ± 0.13 | 4.47 ± 0.86 | 2.22 ± 0.19 | 4.49 ± 0.37 | 9.68 ± 3.4 | 4.91 ± 1.6 | 8.34 ± 0.38 | 3.34 ± 0.58 | 5.708 ± 0.041
MKLDEIARLAGVSRTTASYVINGKAKQYRVSDKTVEKVMAVVREHNYHPNAVAAGLRAGRTRSIGLVIPDLENTSYTRIANYLERQARQRGYQLLIACSEDQPDNEMRCIEHLLQRQVDAIIVSTSLPPEHPFYQRWANDPFPIVALDRALDREHFTSVVGADQDDAEMLAEELRKFPAETVLYLGALPELSVSFLREQGFRTAWKDDPREVHFLYANSYEREAAAQLFEKWLETHPMPQALFTTSFALLQGVMDVTLRRDGKLPSDLAIATFGDNELLDFLQCPVLAVAQRHRDVAERVLEIVLASLDEPRKPKPGLTRIKRNLYRRGVLSRS [P0ACP1] | 6.0472 ± 0.0054 | 5.37 ± 0.29 | 5.38 ± 0.37 | 5.87 ± 0.21 | 5.16 ± 0.56 | 3.17 ± 0.32 | 5.63 ± 0.057 | 9.99 ± 0.83 | 5.65 ± 0.2 | 10.7 ± 0.77 | 5.6 ± 0.084 | 10.65 ± 0.013
MSDERYQQRQQRVKEKVDARVAQAQDERGIIIVFTGNGKGKTTAAFGTATRAVGHGKKVGVVQFIKGTWPNGERNLLEPHGVEFQVMATGFTWDTQNRESDTAACREVWQHAKRMLADSSLDMVLLDELTYMVAYDYLPLEEVVQALNERPHQQTVIITGRGCHRDILELADTVSELRPVKHAFDAGVKAQIGIDY [P0A9H5] | 4.8 ± 0.41 | 4.52 ± 0.17 | 4.27 ± 0.56 | 5.29 ± 1.2 | 4.17 ± 0.17 | 3.41 ± 0.32 | 5.05 ± 0.13 | 9.56 ± 0.6 | 4.235 ± 0.024 | 6.63 ± 0.33 | 5.852 ± 0.021 | 11 ± 0.43
MMVIRPVERSDVSALMQLASKTGGGLTSLPANEATLSARIERAIKTWQGELPKSEQGYVFVLEDSETGTVAGICAIEVAVGLNDPWYNYRVGTLVHASKELNVYNALPTLFLSNDHTGSSELCTLFLDPDWRKEGNGYLLSKSRFMFMAAFRDKFNDKVVAEMRGVIDEHGYSPFWQSLGKRFFSMDFSRADFLCGTGQKAFIAELMPKHPIYTHFLSQEAQDVIGQVHPQTAPARAVLEKEGFRYRNYIDIFDGGPTLECDIDRVRAIRKSRLVEVAEGQPAQGDFPACLVANENYHHFRVVLVRTDPATERLILTAAQLDALKCHAGDRVRLVRLCAEEKTA [P0AE37] | 5.43 ± 0.59 | 2.85 ± 0.19 | 2.96 ± 0.92 | 2.88 ± 0.041 | 2.78 ± 0.33 | 2.58 ± 0.12 | 4.56 ± 0.31 | 9.68 ± 2.2 | 2.452 ± 0.0032 | 3.22 ± 0.69 | 4.07 ± 0.25 | 9.08 ± 0.78
MSEQFLYFLQQMFNGVTLGSTYALIAIGYTMVYGIIGMINFAHGEVYMIGSYVSFMIIAALMMMGIDTGWLLVAAGFVGAIVIASAYGWSIERVAYRPVRNSKRLIALISAIGMSIFLQNYVSLTEGSRDVALPSLFNGQWVVGHSENFSASITTMQAVIWIVTFLAMLALTIFIRYSRMGRACRACAEDLKMASLLGINTDRVIALTFVIGAAMAAVAGVLLGQFYGVINPYIGFMAGMKAFTAAVLGGIGSIPGAMIGGLILGIAEALSSAYLSTEYKDVVSFALLILVLLVMPTGILGRPEVEKV [P0AEX7] | 6.2 |  | > 8 |  | 6.44 ± 0.19 | 2.75 ± 0.53 |  |  | > 8 |  |  | > 16
MAHRPRWTLSQVTELFEKPLLDLLFEAQQVHRQHFDPRQVQVSTLLSIKTGACPEDCKYCPQSSRYKTGLEAERLMEVEQVLESARKAKAAGSTRFCMGAAWKNPHERDMPYLEQMVQGVKAMGLEACMTLGTLSESQAQRLANAGLDYYNHNLDTSPEFYGNIITTRTYQERLDTLEKVRDAGIKVCSGGIVGLGETVKDRAGLLLQLANLPTPPESVPINMLVKVKGTPLADNDDVDAFDFIRTIAVARIMMPTSYVRLSAGREQMNEQTQAMCFMAGANSIFYGCKLLTTPNPEEDKDLQLFRKLGLNPQQTAVLAGDNEQQQRLEQALMTPDTDEYYNAAAL | 3.43 ± 0.23 | 2.236 ± 0.018 | 0.669 | 0.723 ± 0.084 | 0.799 ± 0.048 | 0.8031 ± 0.0044 | 1.3 ± 0.08 | 1.44 ± 0.52 | 0.897 ± 0.17 | 1.09 ± 0.08 | 1.44 ± 0.36 | 2.68 ± 0.76
